Source: the supplement of paper PMC10724198
± gives the standard deviation of the averaged measurements.

What was measured:
[1] = system: Saccharomyces cerevisiae; assay: protein stability index of tFT-peptide fusion (C-terminal peptide) (PSI (0-1 scale)); higher = more stable (slower turnover)
Description: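 MPS profiling in S. cerevisiae of the tFT-X12 degron library: putative degron peptides plus stable controls, 12 aa, fused to the C-terminus of a sfGFP-mCherry timer. Cells are FACS-sorted into 8 mCherry/sfGFP bins and deep-sequenced. PSI runs from 0 (unstable) to 1 (stable). Backgrounds are wild type, das1Δ and doa10Δ at 30 °C, and wild type, das1Δ, cdc34-1 and cdc53-1 at 37 °C; 2-3 technical replicates each.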

[2] = system: Saccharomyces cerevisiae; assay: as above; conditions: genetic background: wild type; temperature: 30 C
[3] = genetic background: cdc34-1, temperature: 37 C
[4] = genetic background: cdc53-1, temperature: 37 C
[5] = genetic background: das1 deletion, temperature: 30 C
[6] = genetic background: das1 deletion, temperature: 37 C
[7] = genetic background: doa10 deletion, temperature: 30 C
[8] = genetic background: wild type, temperature: 30 C
[9] = genetic background: wild type, temperature: 37 C
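Note: PSI is a weighted mean of sequencing reads over stability bins, variants kept only with over 10 reads, mCherry proximal and sfGFP distal, peptide attached via GGGS linker.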

QIDYSVYIFALG
protein stability index [1, 3]: 0.4309 ± 0.00032 | protein stability index [1, 4]: 0.493 ± 0.036 | protein stability index [1, 5]: 0.279 ± 0.03 | protein stability index [1, 6]: 0.4672 ± 0.0007 | protein stability index [1, 7]: 0.261 ± 0.0014 | protein stability index [1, 8]: 0.302 ± 0.023 | protein stability index [1, 9]: 0.454 ± 0.0065 | protein stability index [2]: 0.371 ± 0.026

NDKGKKTKIKIV
protein stability index [1, 3]: 0.659 ± 0.025 | protein stability index [1, 4]: 0.72 ± 0.057 | protein stability index [1, 5]: 0.64 ± 0.067 | protein stability index [1, 6]: 0.7368 ± 0.0053 | protein stability index [1, 7]: 0.187 ± 0.011 | protein stability index [1, 8]: 0.185 ± 0.024 | protein stability index [1, 9]: 0.343 ± 0.029 | protein stability index [2]: 0.254 ± 0.058

SCLSLALLVFFG
protein stability index [1, 3]: 0.442 ± 0.014 | protein stability index [1, 4]: 0.524 ± 0.031 | protein stability index [1, 5]: 0.36 ± 0.019 | protein stability index [1, 6]: 0.523 ± 0.014 | protein stability index [1, 7]: 0.315 ± 0.0051 | protein stability index [1, 8]: 0.349 ± 0.02 | protein stability index [1, 9]: 0.515 ± 0.039 | protein stability index [2]: 0.411 ± 0.061

LVCLVFVRSSLV
protein stability index [1, 3]: 0.268 ± 0.0043 | protein stability index [1, 4]: 0.571 ± 0.079 | protein stability index [1, 5]: 0.25 ± 0.024 | protein stability index [1, 6]: 0.529 ± 0.0096 | protein stability index [1, 7]: 0.205 ± 0.0029 | protein stability index [1, 8]: 0.232 ± 0.038 | protein stability index [1, 9]: 0.457 ± 0.017 | protein stability index [2]: 0.339 ± 0.022

TNFVVRLRFVLF
protein stability index [1, 3]: 0.534 ± 0.021 | protein stability index [1, 4]: 0.5485 ± 0.00062 | protein stability index [1, 5]: 0.464 ± 0.016 | protein stability index [1, 6]: 0.522 ± 0.02 | protein stability index [1, 7]: 0.29 ± 0.015 | protein stability index [1, 8]: 0.295 ± 0.0087 | protein stability index [1, 9]: 0.419 ± 0.011 | protein stability index [2]: 0.366 ± 0.029

FNMLFVVRLLYM
protein stability index [1, 3]: 0.37 ± 0.033 | protein stability index [1, 4]: 0.418 ± 0.0046 | protein stability index [1, 5]: 0.334 ± 0.053 | protein stability index [1, 6]: 0.473 ± 0.026 | protein stability index [1, 7]: 0.259 ± 0.027 | protein stability index [1, 8]: 0.257 ± 0.045 | protein stability index [1, 9]: 0.396 ± 0.0043 | protein stability index [2]: 0.365 ± 0.0057

VQFISLVCLFRF
protein stability index [1, 3]: 0.339 ± 0.048 | protein stability index [1, 4]: 0.361 ± 0.0089 | protein stability index [1, 5]: 0.341 ± 0.045 | protein stability index [1, 6]: 0.475 ± 0.036 | protein stability index [1, 7]: 0.346 ± 0.033 | protein stability index [1, 8]: 0.303 ± 0.018 | protein stability index [1, 9]: 0.448 ± 0.039 | protein stability index [2]: 0.414 ± 0.013

VAWCVWCWWWAV
protein stability index [1, 3]: 0.188 ± 0.0033 | protein stability index [1, 4]: 0.322 ± 0.0061 | protein stability index [1, 5]: 0.209 ± 0.021 | protein stability index [1, 6]: 0.351 ± 0.0049 | protein stability index [1, 7]: 0.06 ± 0.016 | protein stability index [1, 8]: 0.0674 ± 0.015 | protein stability index [1, 9]: 0.0852 ± 0.013 | protein stability index [2]: 0.131 ± 0.047

GCVMSVCSLAVS
protein stability index [1, 3]: 0.605 ± 0.019 | protein stability index [1, 4]: 0.624 ± 0.0098 | protein stability index [1, 5]: 0.45 ± 0.027 | protein stability index [1, 6]: 0.5659 ± 0.0049 | protein stability index [1, 7]: 0.453 ± 0.025 | protein stability index [1, 8]: 0.458 ± 0.011 | protein stability index [1, 9]: 0.54537 ± 2.2e-05 | protein stability index [2]: 0.486 ± 0.013

RGWGGGTWVKMG
protein stability index [1, 3]: 0.592 ± 0.011 | protein stability index [1, 4]: 0.72324 ± 0.00012 | protein stability index [1, 5]: 0.664 ± 0.018 | protein stability index [1, 6]: 0.767 ± 0.013 | protein stability index [1, 7]: 0.113 ± 0.019 | protein stability index [1, 8]: 0.121 ± 0.015 | protein stability index [1, 9]: 0.203 ± 0.004 | protein stability index [2]: 0.3012 ± 0.0016

IFAWPFSATIPW
protein stability index [1, 3]: 0.74 ± 0.022 | protein stability index [1, 4]: 0.81258 ± 0.00076 | protein stability index [1, 5]: 0.696 ± 0.012 | protein stability index [1, 6]: 0.80758 ± 0.00033 | protein stability index [1, 7]: 0.706 ± 0.0086 | protein stability index [1, 8]: 0.7 ± 0.011 | protein stability index [1, 9]: 0.788 ± 0.032 | protein stability index [2]: 0.784 ± 0.021

CWLFVWVRVISL
protein stability index [1, 3]: 0.0995 ± 0.049 | protein stability index [1, 4]: 0.118 ± 0.01 | protein stability index [1, 5]: 0.155 ± 0.038 | protein stability index [1, 6]: 0.23174 ± 3.6e-05 | protein stability index [1, 7]: 0.103 ± 0.024 | protein stability index [1, 8]: 0.12 ± 0.033 | protein stability index [1, 9]: 0.158 ± 0.018 | protein stability index [2]: 0.186 ± 0.033

VFRLLALLWRFF
protein stability index [1, 3]: 0.606 ± 0.01 | protein stability index [1, 4]: 0.695 ± 0.018 | protein stability index [1, 5]: 0.62 ± 0.031 | protein stability index [1, 6]: 0.767 ± 0.029 | protein stability index [1, 7]: 0.323 ± 0.037 | protein stability index [1, 8]: 0.31 ± 0.022 | protein stability index [1, 9]: 0.42 ± 0.012 | protein stability index [2]: 0.325 ± 0.056

PVWLSFHFFLCA
protein stability index [1, 3]: 0.426 ± 0.041 | protein stability index [1, 4]: 0.48 ± 0.011 | protein stability index [1, 5]: 0.369 ± 0.019 | protein stability index [1, 6]: 0.509 ± 0.013 | protein stability index [1, 7]: 0.321 ± 0.02 | protein stability index [1, 8]: 0.332 ± 0.017 | protein stability index [1, 9]: 0.469 ± 0.0063 | protein stability index [2]: 0.44 ± 0.061

CLLSRYRVFFLG
protein stability index [1, 3]: 0.629 ± 0.071 | protein stability index [1, 4]: 0.7205 ± 0.0048 | protein stability index [1, 5]: 0.591 ± 0.023 | protein stability index [1, 6]: 0.706 ± 0.026 | protein stability index [1, 7]: 0.134 ± 0.014 | protein stability index [1, 8]: 0.184 ± 0.026 | protein stability index [1, 9]: 0.351 ± 0.017 | protein stability index [2]: 0.29 ± 0.056

SFVGCWFVLLVR
protein stability index [1, 3]: 0.0307 ± 0.0085 | protein stability index [1, 4]: 0.0395 ± 0.0077 | protein stability index [1, 5]: 0.138 ± 0.024 | protein stability index [1, 6]: 0.235 ± 0.003 | protein stability index [1, 7]: 0.193 ± 0.0003 | protein stability index [1, 8]: 0.122 ± 0.025 | protein stability index [1, 9]: 0.159 ± 0.0049 | protein stability index [2]: 0.179 ± 0.036

WRLRIAAVVRSS
protein stability index [1, 3]: 0.556 ± 0.047 | protein stability index [1, 4]: 0.655 ± 0.031 | protein stability index [1, 5]: 0.586 ± 0.011 | protein stability index [1, 6]: 0.6471 ± 0.0012 | protein stability index [1, 7]: 0.123 ± 0.0017 | protein stability index [1, 8]: 0.142 ± 0.021 | protein stability index [1, 9]: 0.287 ± 0.016 | protein stability index [2]: 0.281 ± 0.028

SLLFVFVSVGCI
protein stability index [1, 3]: 0.0483 ± 0.0074 | protein stability index [1, 4]: 0.147 ± 0.0097 | protein stability index [1, 5]: 0.148 ± 0.03 | protein stability index [1, 6]: 0.246 ± 0.035 | protein stability index [1, 7]: 0.116 ± 0.0038 | protein stability index [1, 8]: 0.148 ± 0.025 | protein stability index [1, 9]: 0.166 ± 0.023 | protein stability index [2]: 0.253 ± 0.016

SCIFVSSYFFVF
protein stability index [1, 3]: 0.417 ± 0.0029 | protein stability index [1, 4]: 0.465 ± 0.057 | protein stability index [1, 5]: 0.364 ± 0.025 | protein stability index [1, 6]: 0.506 ± 0.012 | protein stability index [1, 7]: 0.179 ± 0.0043 | protein stability index [1, 8]: 0.18 ± 0.02 | protein stability index [1, 9]: 0.307 ± 0.00077 | protein stability index [2]: 0.251 ± 0.02
